Results: patent publication US7183110B2, “Antibody immunoreactive with a 5-enolpyruvylshikimate-3-phosphate synthase” (Monsanto Technology LLC, priority 1990, dated 2007)

What was measured:
B. subtilis EPSPS = target: T1, B. subtilis EPSPS (Bacillus subtilis, UniProt P20691); assay: EPSPS assay and kinetics of B. subtilis EPSPS in crude bacterial extract; type: biochemical; conditions: for EPSPS specific activity: crude extract
T1 construct: Standard EPSPS assay reactions contained crude bacterial extract; endogenous in cells; host or cells: Bacillus subtilis 1A2 crude extract; some values from E. coli GB100 carrying pMON21133 (subclone) or pMON21132 (PCR clone)
Procedure: Bacillus subtilis 1A2 (prototroph) was obtained from the Bacillus Genetic Stock Center at Ohio State University. Standard EPSPS assay reactions contained crude bacterial extract with, 1 mM phosphoenolpyruvate (PEP), 2 mM shikimate-3-phosphate (S3P), 0.1 mM ammonium molybdate, 5 mM potassium fluoride, and 50 mM HEPES, pH 7.0 at 25° C. One unit (U) of EPSPS activity is defined as one μmol EPSP formed per minute under these conditions. For kinetic determinations, reactions contained crude bacterial, 2 mM S3P, varying concentrations of PEP, and 50 mM HEPES, pH 7.0 at 25° C. […] When the assays were performed in the presence of 1 mM glyphosate, 100% of the EPSPS activity was retained. The appKm(PEP) of the B. subtilis EPSPS was determined by measuring the reaction velocity at varying concentrations of PEP. The results were analyzed graphically by the hyperbolic, Lineweaver-Burk and Eadie-Hofstee plots which yielded appKm(PEP) values of 15.3 μM, 10.8 μM and 12.2 μM, respectively. These three data treatments are in good agreement, and yield an average value for appKm(PEP) of 13 μM. The appKi(glyphosate) was estimated by determining the reaction rates of B. subtilis 1A2 EPSPS in the presence of several concentrations of glyphosate, at a PEP concentration of 2 μM.
The other approach to the isolation of the B. subtilis aroE gene, subcloning from ECE13 into pUC118, was performed as follows: • (i) Cut ECE13 and pUC with XmaI and SphI. • (ii) Isolate 1700 bp aroE fragment and 2600 bp pUC118 vector fragment. • (iii) Ligate fragments and transform into GB100. The subclone was designated pMON21133 and the PCR-derived clone was named pMON21132. Clones from both approaches were first confirmed for complementation of the aroA mutation in E. coli GB100. […] These specific activities reflect the expected types of expression levels of the two vectors. […] The appKm(PEP) and the appKi(glyphosate) of the subcloned B. subtilis EPSPS (pMON21133) were determined as described above. […] Characterization of the EPSPS Gene from Staphylococcus aureus

EPSPS enzymes = assay: Kinetic characterization of EPSPS enzymes (Km PEP, Ki glyphosate); type: biochemical; conditions: for Ki/Km: Ki glyphosate / Km PEP; for Km: Km of the EPSPS enzyme for phosphoenolpyruvate, PEP ranges tested in table footnotes
Procedure: The EPSPS enzymes from these microorganisms were then subjected to further study and analysis.
When the change introduced into the Petunia EPSPS (GA101) was introduced into a number of other EPSPS enzymes, similar changes in kinetics were observed, an elevation of the Ki for glyphosate and of the Km for PEP.
All protein purification procedures were carried out at 3–5° C. EPSPS enzyme assays were performed using either the phosphate release or radioactive HPLC method, as previously described in Padgette et al., 1987, using 1 mM phosphoenol pyruvate (PEP, Boehringer) and 2 mM shikimate-3-phosphate (S3P) substrate concentrations. For radioactive HPLC assays, ^14C-PEP (Amersham) was utilized. S3P was synthesized as previously described in Wibbenmeyer et al. 1988. N-terminal amino acid sequencing was performed by loading samples onto a Polybrene precycled filter in aliquots while drying. Automated Edman degradation chemistry was used to determine the N-terminal protein sequence, using an Applied Biosystems Model 470A gas phase sequencer (Hunkapiller et al., 1983) with an Applied Biosystems 120A PTH analyzer.

[1] = test system: rabbit anti-EPSPS antibody; assay: Western analysis with rabbit anti-EPSPS antibody to the Petunia EPSPS protein; type: binding; conditions: crude extracts 50 μg protein; control Petunia EPSPS 20 ng; Protein A-125I development
Description: The presence of EPSPS activity in these extracts was confirmed by enzyme assay. This surprising result, indicating a lack of similarity between the EPSPS's from these bacterial isolates and those previously studied, coupled with the combination of a low Km for PEP and a high Ki for glyphosate, illustrates that these new EPSPS enzymes are different from known EPSPS enzymes (now referred to as Class I EPSPS).

CP4 EPSPS = target: T2, CP4 EPSPS (Agrobacterium sp., UniProt Q9R4E4, S2A); assay: EPSPS activity from native and synthetic CP4 EPSPS genes expressed in E. coli; type: biochemical, Agrobacterium sp. strain CP4
T2 construct: made in house; host or cells: E. coli, PRecA-gene10L vector
T2 sequence (Q9R4E4 whole entry S2A): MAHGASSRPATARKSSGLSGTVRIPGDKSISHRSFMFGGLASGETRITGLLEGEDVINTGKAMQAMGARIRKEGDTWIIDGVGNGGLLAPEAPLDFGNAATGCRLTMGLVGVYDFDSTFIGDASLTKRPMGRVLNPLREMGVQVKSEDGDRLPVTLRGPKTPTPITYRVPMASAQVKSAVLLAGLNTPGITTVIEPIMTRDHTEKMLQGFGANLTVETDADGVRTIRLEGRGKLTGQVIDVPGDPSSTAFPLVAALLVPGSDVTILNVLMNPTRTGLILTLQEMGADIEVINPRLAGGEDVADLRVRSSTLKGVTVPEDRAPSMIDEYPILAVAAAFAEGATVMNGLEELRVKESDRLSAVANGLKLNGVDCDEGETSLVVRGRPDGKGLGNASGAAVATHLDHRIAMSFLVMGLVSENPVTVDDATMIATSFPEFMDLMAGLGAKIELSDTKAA
Description: A synthetic CP4 gene was designed to change as completely as possible those inimical sequences discussed above. In summary, the gene sequence was redesigned to eliminate as much as possible the following sequences or sequence features (while avoiding the introduction of unnecessary restriction sites): stretches of G's and C's of 5 or greater; and A+T rich regions (predominantly) that could function as polyadenylation sites or potential RNA destabilization region The sequence of this gene is shown in FIG. 8 (SEQ ID NO:9). This coding sequence was expressed in E. coli from the RecA promoter and assayed for EPSPS activity and compared with that from the native CP4 EPSPS gene. […] The N-terminus of the coding sequence was mutagenized to place an SphI site at the ATG to permit the construction of the CTP2-CP4 synthetic fusion for chloroplast import. The following primer was used to accomplish this mutagenesis:
The EPSPS gene was isolated originally from Agrobacterium sp. strain CP4 and expresses a highly tolerant enzyme. The original gene contains sequences that could be inimical to high expression of the gene in some plants. […] The high G+C % in the CP4 EPSPS gene could also result in the formation of strong hairpin structures that may affect expression or stability of the RNA. A plant preferred version of the gene was synthesized and used for these vectors. This coding sequence was expressed in E. coli from a PRecA-gene10L vector (Olins et al., 1988) and the EPSPS activity was compared with that from the native CP4 EPSPS gene. […] The N-terminus of the coding sequence was then mutagenized to place an SphI site (GCATGC) at the ATG to permit the construction of the CTP2-CP4 synthetic fusion for chloroplast import. This change had no apparent effect on the in vivo activity of CP4 EPSPS in E. coli as judged by complementation of the aroA mutant. A CTP-CP4 EPSPS fusion was constructed between the Arabidopsis thaliana EPSPS CTP (Klee et al., 1987) and the CP4 EPSPS coding sequences. The Arabidopsis CTP was engineered by site-directed mutagenesis to place a SphI restriction site at the CTP processing site. This mutagenesis replaced the Glu-Lys at this location with Cys-Met. The CTP2-CP4 EPSPS fusion was tested for import into chloroplasts isolated from Lactuca sativa using the methods described previously (della-Cioppa et al., 1986: 1987).

[2] = 2 mM S3P, varying PEP, pH 7.0, 25° C.
[3] = 1 mM PEP, 2 mM S3P, pH 7.0, 25° C.

Molecule | EPSPS specific activity (B. subtilis EPSPS; [3]) | Ki/Km (EPSPS enzymes) | Km (EPSPS enzymes) | also measured
B. subtilis 1A2: Class II EPSPS from Bacillus subtilis 1A2 (SEQ ID NO:42) (protein, listed as Bacillus subtilis) MKRDKVQTLHGEIHIPGDKSISHRSVMFGALAAGTTTVKNFLPGADCLSTIDCFRKMGVHIEQSSSDVVIHGKGIDALKEPESLLDVGNSGTTIRLMLGILAGRPFYSAVAGDESIAKRPMKRVTEPLKKMGAKIDGRAGGEFTPLSVSGASLKGIDYVSPVASAQIKSAVLLAGLQAEGTTTVTEPHKSRDHTERMLSAFGVKLSEDQTSVSIAGGQKLTAADIFVPGDISSAAFFLAAGAMVPNSRIVLKNVGLNPTRTGIIDVLQNMGAKLEIKPSADSGAEPYGDLIIETSSLKAVEIGGDIIPRLIDEIPIIALLATQAEGTTVIKDAAELKVKETNRIDTVVSELRKLGAEIEPTADGMKVYGKQTLKGGAAVSSHGDHRIGMMLGIASCITEEPIEIEHTDAIHVSYPTFFEHLNKLSKKS | 0.003 U/mg | 33.8 | 13 µM | EPSPS activity retained in the presence of 1 mM glyphosate (B. subtilis EPSPS; 1 mM glyphosate, 1 mM PEP, 2 mM S3P): 100%; appKm(PEP), Eadie-Hofstee plot (B. subtilis EPSPS; [2]): 12.2 µM; appKm(PEP), Lineweaver-Burk plot (B. subtilis EPSPS; [2]): 10.8 µM; appKm(PEP), hyperbolic plot (B. subtilis EPSPS; [2]): 15.3 µM; average value for appKm(PEP) (B. subtilis EPSPS; average of three data treatments): 13 µM
pMON21133: B. subtilis EPSPS (aroE) subcloned from ECE13 into pUC118, expressed in E. coli GB100 (protein, UniProt P54374 1-280, looked up) Shikimate dehydrogenase …: MKKLYGVIGNPIGHSMSPDIHNASLKDLGLDGHYHAFKVEENDLEDAVKGIRALGVQGINVTVPHKVSIMDYLDHIDESAKVLGAVNTVRREGDKLVGYNTDGEGFVKSLMKVLDKPISELSFLMIGAGGAARAIFTTIVRNTPKKFDICNRTLEKAKRLTEATPSFHNKEVLSIKEAEERLEQYDVIIHTTSVGMYPNVDDVPLSLQRAASSAVVCDIVYNPIQTALLKEASQKGLKTLDGVGMFVEQAALSFQLWTGQEPNIEKMRSIVIGKLGGTEC | 0.044 U/mg |  |  | 
pMON21132: B. subtilis EPSPS from the PCR-derived aroE clone, expressed in E. coli GB100 (protein, UniProt P54374 1-280, looked up) Shikimate dehydrogenase …: MKKLYGVIGNPIGHSMSPDIHNASLKDLGLDGHYHAFKVEENDLEDAVKGIRALGVQGINVTVPHKVSIMDYLDHIDESAKVLGAVNTVRREGDKLVGYNTDGEGFVKSLMKVLDKPISELSFLMIGAGGAARAIFTTIVRNTPKKFDICNRTLEKAKRLTEATPSFHNKEVLSIKEAEERLEQYDVIIHTTSVGMYPNVDDVPLSLQRAASSAVVCDIVYNPIQTALLKEASQKGLKTLDGVGMFVEQAALSFQLWTGQEPNIEKMRSIVIGKLGGTEC | 0.71 U/mg |  |  | 
Petunia: native Petunia EPSPS, a Class I EPSPS (protein, Petunia x hybrida) KPSEIVLQPIKEISGTVKLPGSKSLSNRILLLAALSEGTTVVDNLLSSDDIHYMLGALKTLGLHVEEDSANQRAVVEGCGGLFPVGKESKEEIQLFLGNAGTAMRPLTAAVTVAGGNSRYVLDGVPRMRERPISDLVDGLKQLGAEVDCFLGTKCPPVRIVSKGGLPGGKVKLSGSISSQYLTALLMAAPLALGDVEIEIIDKLISVPYVEMTLKLMERFGISVEHSSSWDRFFVRGGQKYKSPGKAFVEGDASSASYFLAGAAVTGGTITVEGCGTNSLQGDVKFAEVLEKMGAEVTWTENSVTVKGPPRSSSGRKHLRAIDVNMNKMPDVAMTLAVVALYADGPTAIRDVASWRVKETERMIAICTELRKLGATVEEGPDYCIITPPEKLNVTDIDTYDDHRMAMAFSLAACADVPVTINDPGCTRKTFPNYFDVLQQYSKH |  | 0.08 | 5 µM | signal in Western analysis with rabbit anti-EPSPS antibody [1]: readily detected
synthetic CP4 gene: EPSPS enzyme expressed in E. coli from the synthetic CP4 gene (SEQ ID NO:9) (protein, UniProt Q9R4E4 1-455, looked up) 3-phosphoshikimate …: MSHGASSRPATARKSSGLSGTVRIPGDKSISHRSFMFGGLASGETRITGLLEGEDVINTGKAMQAMGARIRKEGDTWIIDGVGNGGLLAPEAPLDFGNAATGCRLTMGLVGVYDFDSTFIGDASLTKRPMGRVLNPLREMGVQVKSEDGDRLPVTLRGPKTPTPITYRVPMASAQVKSAVLLAGLNTPGITTVIEPIMTRDHTEKMLQGFGANLTVETDADGVRTIRLEGRGKLTGQVIDVPGDPSSTAFPLVAALLVPGSDVTILNVLMNPTRTGLILTLQEMGADIEVINPRLAGGEDVADLRVRSSTLKGVTVPEDRAPSMIDEYPILAVAAAFAEGATVMNGLEELRVKESDRLSAVANGLKLNGVDCDEGETSLVVRGRPDGKGLGNASGAAVATHLDHRIAMSFLVMGLVSENPVTVDDATMIATSFPEFMDLMAGLGAKIELSDTKAA |  |  |  | appKm for PEP (CP4 EPSPS; expressed in E. coli from a PRecA-gene10L vector): 12.7 µM; Km (CP4 EPSPS; expressed in E. coli from the RecA promoter, read-out: apparent Km for PEP): 12.7 µM
PG2982: Class II EPSPS enzyme from Pseudomonas sp. strain PG2982 (SEQ ID NO:7) (protein, listed as Pseudomonas sp.) MSHSASPKPATARRSEALTGEIRIPGDKSISHRSFMFGGLASGETRITGLLEGEDVINTGRAMQAMGAKIRKEGDVWIINGVGNGCLLQPEAALDFGNAGTGARLTMGLVGTYDMKTSFIGDASLSKRPMGRVLNPLREMGVQVEAADGDRMPLTLIGPKTANPITYRVPMASAQVKSAVLLAGLNTPGVTTVIEPVMTRDHTEKMLQGFGADLTVETDKDGVRHIRITGQGKLVGQTIDVPGDPSSTAFPLVAALLVEGSDVTIRNVLMNPTRTGLILTLQEMGADIEVLNARLAGGEDVADLRVRASKLKGVVVPPERAPSMIDEYPVLAIAASFAEGETVMDGLDELRVKESDRLAAVARGLEANGVDCTEGEMSLTVRGRPDGKGLGGGTVATHLDHRIAMSFLVMGLAAEKPVTVDDSNMIATSFPEFMDMMPGLGAKIELSIL |  | ~8–40 | 2.1 to 3.1 µM | 
